{"source": "patent US20120315703A1", "molecular_target": "Lrh-1 (liver receptor homolog 1, Nr5a2) (mouse) (UniProt P45448)", "sequence (P45448 whole entry)": "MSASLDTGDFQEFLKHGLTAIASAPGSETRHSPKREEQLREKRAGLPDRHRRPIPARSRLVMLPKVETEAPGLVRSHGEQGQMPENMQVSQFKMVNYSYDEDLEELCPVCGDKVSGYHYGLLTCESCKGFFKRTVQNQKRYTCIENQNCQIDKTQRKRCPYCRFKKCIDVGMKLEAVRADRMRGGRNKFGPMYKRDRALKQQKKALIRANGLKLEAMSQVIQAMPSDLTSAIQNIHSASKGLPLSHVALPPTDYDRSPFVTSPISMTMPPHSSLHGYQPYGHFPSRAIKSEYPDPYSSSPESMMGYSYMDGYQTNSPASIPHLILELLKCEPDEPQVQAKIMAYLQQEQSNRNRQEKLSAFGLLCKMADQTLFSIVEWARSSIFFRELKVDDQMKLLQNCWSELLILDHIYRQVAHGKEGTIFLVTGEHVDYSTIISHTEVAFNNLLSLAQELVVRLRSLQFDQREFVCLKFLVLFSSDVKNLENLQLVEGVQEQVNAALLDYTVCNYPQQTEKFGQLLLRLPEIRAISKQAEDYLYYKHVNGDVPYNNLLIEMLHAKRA", "assay": "cell-based or functional assay", "data": [{"substance": "Rarg (retinoic acid receptor gamma), full-length (from UniProt P18911 1-458)", "values": [{"measurement": "luciferase reporter expression (luciferase cassette linked to the Oct4 promoter), fold increase on co-expression", "value": "4 to 5", "unit": "fold"}]}]}
